The values that follow come from patent US20170369523A1, “TEMPLATE-FIXED BETA-HAIRPIN PEPTIDOMIMETICS THAT ARE LIGANDS FOR G-PROTEIN-COUPLED RECEPTORS (GPCRS) AND ARE MODULATORS OF TRANSCRIPTION FACTORS AND COACTIVATORS” (POLYPHOR AG, priority 2008, published 2017).

This test concerns the target T1, NCoA-1 (UniProt Q15788 257-385, limits assumed).
T1 construct: also called SRC-1
T1 sequence (looked up): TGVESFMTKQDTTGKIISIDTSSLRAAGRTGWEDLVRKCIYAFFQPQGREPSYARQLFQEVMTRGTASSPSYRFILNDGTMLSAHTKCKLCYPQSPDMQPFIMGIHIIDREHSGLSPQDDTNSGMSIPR
As to the kind of experiment: competition fluorescence polarization; displacement of FluoSTAT6 from NCoA-1. The method, then: The mixtures were shaken thoroughly. Fluorescence polarization was measured on a SPECTRAmax M5 spectrometer (Molecular device) following 5-30 min incubation at room temperature. FluoSTAT6 was excited at 490 nm and emission polarization was detected at 525 nm. 40 intensity measurements were collected for each well, 20 at horizontal position of the dynamic polarizer, 20 at parallel position. As the fraction of FluoSTAT6 bound to NCoA-1 is correlated to the fluorescence polarization (FP), after normalization, the fraction of bound FluoSTAT6 (B) was determined, and the KD was calculated according to B=[(1+P/R+KD/R)−((1+P/R+KD/R)²−4P/R)^{0.5}]/2, wherein P is the total probe concentration, R the total protein concentration and KD the dissociation constant (M. H. Roehrl, J. Y. Wang, G. Wagner, Biochemistry 2004, 3, 16056).
To determine the Kᵢ values of potential inhibitors of the STAT6/NCoA-1 interaction (competition fluorescence polarization) the compounds (dilution series from 0 to 100 μM final concentration) dissolved in HEPES buffer (10 mM HEPES, 150 mM NaCl, 3.4 mM EDTA, 0.1% BSA) were dispensed in a black 96 well plate (Greiner) and FluoSTAT6 (200 nM final concentration) in HEPES buffer was added. The mixture was completed by a HEPES buffer solution of NCoA-1 (1 μM final concentration) and processed as described above. STAT6Y (C-terminal tyrosine extended STAT6 794-814 peptide) was used as a positive control. As the total fluorescence intensity of FluoSTAT6 remains similar for all samples, the fraction of peptide bound to NCoA-1 is correlated to the fluorescence polarization.
Following normalization data were fitted with IGORpro Software® (WaveMetrics, Lake Oswego, Oreg., USA) to a sigmoid equation to determine IC₅₀ values.

Numbered stars: 1 amine (or outer) side, 2 acyl side, 3 side chain; on linkers, the order of the positions; unused ones are H or OH. Square brackets hold non-standard residues; d marks the D form. Pro(4S-SH) = O=C([C@@H]1C[C@H](S[*:3])CN1[*:1])[*:2]; Trp(6-Cl) = N[C@@H](Cc1c[nH]c2cc(Cl)ccc12)C(=O)O; Oic = O=C(O)[C@@H]1C[C@@H]2CCCC[C@@H]2N1; Gly(octyl) = CCCCCCCC[C@H](N)C(=O)O; Cha = N[C@@H](CC1CCCCC1)C(=O)O

B1: Ex. 19 (peptide)
peptide: cyclo(FEWLDWEF[dP]P)
SMILES: CC(C)C[C@@H]1NC(=O)[C@H](Cc2c[nH]c3ccccc23)NC(=O)[C@H](CCC(=O)O)NC(=O)[C@H](Cc2ccccc2)NC(=O)[C@@H]2CCCN2C(=O)[C@H]2CCCN2C(=O)[C@H](Cc2ccccc2)NC(=O)[C@H](CCC(=O)O)NC(=O)[C@H](Cc2c[nH]c3ccccc23)NC(=O)[C@H](CC(=O)O)NC1=O
notes: cyclo(-P1..P8-template-)
As usually defined, the Ki is a dissociation constant, usually derived from enzyme kinetics or from competition with a known ligand. The molecule B1 registered a Ki of 3.7 µM.

B2: Ex. 27 (peptide)
peptide: cyclo(MEWLDWEF[dP]P)
SMILES: CSCC[C@@H]1NC(=O)[C@@H]2CCCN2C(=O)[C@H]2CCCN2C(=O)[C@H](Cc2ccccc2)NC(=O)[C@H](CCC(=O)O)NC(=O)[C@H](Cc2c[nH]c3ccccc23)NC(=O)[C@H](CC(=O)O)NC(=O)[C@H](CC(C)C)NC(=O)[C@H](Cc2c[nH]c3ccccc23)NC(=O)[C@H](CCC(=O)O)NC1=O
notes: cyclo(-P1..P8-template-)
For the molecule B2, the affinity corresponds to a Ki of 7.9 µM.

B3: Ex. 24 (peptide)
peptide: cyclo(FEWLAWLF[dP]P)
SMILES: CC(C)C[C@@H]1NC(=O)[C@H](Cc2c[nH]c3ccccc23)NC(=O)[C@H](CCC(=O)O)NC(=O)[C@H](Cc2ccccc2)NC(=O)[C@@H]2CCCN2C(=O)[C@H]2CCCN2C(=O)[C@H](Cc2ccccc2)NC(=O)[C@H](CC(C)C)NC(=O)[C@H](Cc2c[nH]c3ccccc23)NC(=O)[C@H](C)NC1=O
notes: cyclo(-P1..P8-template-)
B3 came in with a Ki of 24.3 µM.

B4: Ex. 21 (peptide)
peptide: cyclo(FEWLAWYF[dP]P)
SMILES: CC(C)C[C@@H]1NC(=O)[C@H](Cc2c[nH]c3ccccc23)NC(=O)[C@H](CCC(=O)O)NC(=O)[C@H](Cc2ccccc2)NC(=O)[C@@H]2CCCN2C(=O)[C@H]2CCCN2C(=O)[C@H](Cc2ccccc2)NC(=O)[C@H](Cc2ccc(O)cc2)NC(=O)[C@H](Cc2c[nH]c3ccccc23)NC(=O)[C@H](C)NC1=O
notes: cyclo(-P1..P8-template-)
Molecule B4 returned a Ki of 19.6 µM.

B5: Ex. 23 (peptide)
peptide: cyclo(EEWLAWEF[dP]P)
SMILES: CC(C)C[C@@H]1NC(=O)[C@H](Cc2c[nH]c3ccccc23)NC(=O)[C@H](CCC(=O)O)NC(=O)[C@H](CCC(=O)O)NC(=O)[C@@H]2CCCN2C(=O)[C@H]2CCCN2C(=O)[C@H](Cc2ccccc2)NC(=O)[C@H](CCC(=O)O)NC(=O)[C@H](Cc2c[nH]c3ccccc23)NC(=O)[C@H](C)NC1=O
notes: cyclo(-P1..P8-template-)
B5 showed a Ki of 16.4 µM.

B6: Ex. 20 (peptide)
peptide: cyclo(FEWLAWEE[dP]P)
SMILES: CC(C)C[C@@H]1NC(=O)[C@H](Cc2c[nH]c3ccccc23)NC(=O)[C@H](CCC(=O)O)NC(=O)[C@H](Cc2ccccc2)NC(=O)[C@@H]2CCCN2C(=O)[C@H]2CCCN2C(=O)[C@H](CCC(=O)O)NC(=O)[C@H](CCC(=O)O)NC(=O)[C@H](Cc2c[nH]c3ccccc23)NC(=O)[C@H](C)NC1=O
notes: cyclo(-P1..P8-template-)
In the case of B6, the Ki stood at 11.5 µM.

B7: Ex. 22 (peptide)
peptide: cyclo(FLWLAWEF[dP]P)
SMILES: CC(C)C[C@@H]1NC(=O)[C@H](Cc2c[nH]c3ccccc23)NC(=O)[C@H](CC(C)C)NC(=O)[C@H](Cc2ccccc2)NC(=O)[C@@H]2CCCN2C(=O)[C@H]2CCCN2C(=O)[C@H](Cc2ccccc2)NC(=O)[C@H](CCC(=O)O)NC(=O)[C@H](Cc2c[nH]c3ccccc23)NC(=O)[C@H](C)NC1=O
notes: cyclo(-P1..P8-template-)
As to B7, the affinity, expressed as Ki, was 8.9 µM.

B8: Ex. 6 (peptide)
peptide: cyclo(FE[Trp(6-Cl)]LA[Gly(octyl)]EF[dP]P)
SMILES: CCCCCCCC[C@@H]1NC(=O)[C@H](C)NC(=O)[C@H](CC(C)C)NC(=O)[C@H](Cc2c[nH]c3cc(Cl)ccc23)NC(=O)[C@H](CCC(=O)O)NC(=O)[C@H](Cc2ccccc2)NC(=O)[C@@H]2CCCN2C(=O)[C@H]2CCCN2C(=O)[C@H](Cc2ccccc2)NC(=O)[C@H](CCC(=O)O)NC1=O
notes: cyclo(-P1..P8-template-)
Regarding B8, the Ki is 3.6 µM.

B9: Ex. 14 (peptide)
peptide: cyclo(FA[Trp(6-Cl)]LDWEF[dP]P)
SMILES: CC(C)C[C@@H]1NC(=O)[C@H](Cc2c[nH]c3cc(Cl)ccc23)NC(=O)[C@H](C)NC(=O)[C@H](Cc2ccccc2)NC(=O)[C@@H]2CCCN2C(=O)[C@H]2CCCN2C(=O)[C@H](Cc2ccccc2)NC(=O)[C@H](CCC(=O)O)NC(=O)[C@H](Cc2c[nH]c3ccccc23)NC(=O)[C@H](CC(=O)O)NC1=O
notes: cyclo(-P1..P8-template-)
In turn, B9 showed a Ki of 1.4 µM.

B10: Ex. 26 (peptide)
peptide: cyclo([Cha]EWLAWE[Cha][dP]P)
SMILES: CC(C)C[C@@H]1NC(=O)[C@H](Cc2c[nH]c3ccccc23)NC(=O)[C@H](CCC(=O)O)NC(=O)[C@H](CC2CCCCC2)NC(=O)[C@@H]2CCCN2C(=O)[C@H]2CCCN2C(=O)[C@H](CC2CCCCC2)NC(=O)[C@H](CCC(=O)O)NC(=O)[C@H](Cc2c[nH]c3ccccc23)NC(=O)[C@H](C)NC1=O
notes: cyclo(-P1..P8-template-)
B10 showed a Ki of 7.7 µM.

B11: Ex. 13 (peptide)
peptide: cyclo(FE[Trp(6-Cl)]LDWAF[dP]P)
SMILES: CC(C)C[C@@H]1NC(=O)[C@H](Cc2c[nH]c3cc(Cl)ccc23)NC(=O)[C@H](CCC(=O)O)NC(=O)[C@H](Cc2ccccc2)NC(=O)[C@@H]2CCCN2C(=O)[C@H]2CCCN2C(=O)[C@H](Cc2ccccc2)NC(=O)[C@H](C)NC(=O)[C@H](Cc2c[nH]c3ccccc23)NC(=O)[C@H](CC(=O)O)NC1=O
notes: cyclo(-P1..P8-template-)
In turn, B11 came in with a Ki of 2 µM.

B12: Ex. 18 (peptide)
peptide: cyclo(FE[Trp(6-Cl)]LDAEF[dP]P)
SMILES: CC(C)C[C@@H]1NC(=O)[C@H](Cc2c[nH]c3cc(Cl)ccc23)NC(=O)[C@H](CCC(=O)O)NC(=O)[C@H](Cc2ccccc2)NC(=O)[C@@H]2CCCN2C(=O)[C@H]2CCCN2C(=O)[C@H](Cc2ccccc2)NC(=O)[C@H](CCC(=O)O)NC(=O)[C@H](C)NC(=O)[C@H](CC(=O)O)NC1=O
notes: cyclo(-P1..P8-template-)
Molecule B12 registered a Ki of 3.3 µM.

B13: Ex. 1 (peptide)
peptide: cyclo(FE[Trp(6-Cl)]LAWEF[dP]P)
SMILES: CC(C)C[C@@H]1NC(=O)[C@H](Cc2c[nH]c3cc(Cl)ccc23)NC(=O)[C@H](CCC(=O)O)NC(=O)[C@H](Cc2ccccc2)NC(=O)[C@@H]2CCCN2C(=O)[C@H]2CCCN2C(=O)[C@H](Cc2ccccc2)NC(=O)[C@H](CCC(=O)O)NC(=O)[C@H](Cc2c[nH]c3ccccc23)NC(=O)[C@H](C)NC1=O
notes: cyclo(-P1..P8-template-)
As to B13, the Ki was 0.7 µM.

B14: Ex. 5 (peptide)
peptide: cyclo(FT[Trp(6-Cl)]LAWEF[dP][Pro(4S-SH)])
SMILES: CC(C)C[C@@H]1NC(=O)[C@H](Cc2c[nH]c3cc(Cl)ccc23)NC(=O)[C@H]([C@@H](C)O)NC(=O)[C@H](Cc2ccccc2)NC(=O)[C@@H]2C[C@H](S)CN2C(=O)[C@H]2CCCN2C(=O)[C@H](Cc2ccccc2)NC(=O)[C@H](CCC(=O)O)NC(=O)[C@H](Cc2c[nH]c3ccccc23)NC(=O)[C@H](C)NC1=O
notes: cyclo(-P1..P8-template-)
As to B14, the affinity, expressed as Ki, was 3.8 µM.

B15: Ex. 25 (peptide)
peptide: cyclo([Cha]EWLAWEF[dP]P)
SMILES: CC(C)C[C@@H]1NC(=O)[C@H](Cc2c[nH]c3ccccc23)NC(=O)[C@H](CCC(=O)O)NC(=O)[C@H](CC2CCCCC2)NC(=O)[C@@H]2CCCN2C(=O)[C@H]2CCCN2C(=O)[C@H](Cc2ccccc2)NC(=O)[C@H](CCC(=O)O)NC(=O)[C@H](Cc2c[nH]c3ccccc23)NC(=O)[C@H](C)NC1=O
notes: cyclo(-P1..P8-template-)
B15: the inhibition constant (Ki) was determined as 6 µM.

B16: Ex. 3 (peptide)
peptide: cyclo(FEWLAWEW[dP][Oic])
SMILES: CC(C)C[C@@H]1NC(=O)[C@H](Cc2c[nH]c3ccccc23)NC(=O)[C@H](CCC(=O)O)NC(=O)[C@H](Cc2ccccc2)NC(=O)[C@@H]2C[C@@H]3CCCC[C@@H]3N2C(=O)[C@H]2CCCN2C(=O)[C@H](Cc2c[nH]c3ccccc23)NC(=O)[C@H](CCC(=O)O)NC(=O)[C@H](Cc2c[nH]c3ccccc23)NC(=O)[C@H](C)NC1=O
notes: cyclo(-P1..P8-template-)
As to B16, affinity was put at a Ki of 6.2 µM.

B17: Ex. 4 (peptide)
peptide: cyclo(FEWL[dA]WEF[dP]P)
SMILES: CC(C)C[C@@H]1NC(=O)[C@H](Cc2c[nH]c3ccccc23)NC(=O)[C@H](CCC(=O)O)NC(=O)[C@H](Cc2ccccc2)NC(=O)[C@@H]2CCCN2C(=O)[C@H]2CCCN2C(=O)[C@H](Cc2ccccc2)NC(=O)[C@H](CCC(=O)O)NC(=O)[C@H](Cc2c[nH]c3ccccc23)NC(=O)[C@@H](C)NC1=O
notes: cyclo(-P1..P8-template-)
Consider B17, for which the affinity, expressed as Ki, was 15 µM.
